Test results: US20250011413A1 (MCMASTER UNIVERSITY, published 2025)

Tests used:
[1] = target: T1, Human PF4 (CXCL4), biotinylated, without heparin (human, UniProt P02776 32-101, biotinylated with EZ-link-Sulfo-NHS-LC-Biotin (sites not given)); experiment: BLI (Octet), biotinylated PF4 without heparin on streptavidin sensors, 1:1 model; scFv at 2.0 µg/mL
T1 construct: Immobilised on streptavidin biosensors for BLI; also called PF4 alone; platelet factor 4
T1 sequence: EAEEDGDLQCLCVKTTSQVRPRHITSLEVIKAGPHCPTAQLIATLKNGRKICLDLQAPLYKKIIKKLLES
Method: (§1) The Octet-QK Red 96 (FortéBio, Menlo Park, CA) instrumentation was used to conduct all BLI experiments. A 96-well microtiter plate (black, flat-bottom) was used to hold 200 μL per well of either sample or buffer. Pre-coated streptavidin biosensor tips (FortéBio) were hydrated in phosphate buffered saline (PBS) containing 1% bovine serum albumin (BSA, Sigma-Aldrich) before performing all kinetic assays. Each step was performed at an operating temperature of 23° C. with agitation at 1000 rpm. Streptavidin tips were first equilibrated in PBS+1% BSA to establish a baseline. […] The PF4-coated tips were then dipped into PBS+1% BSA for 13 minutes to re-establish a baseline. Tips were then incubated in an analyte solution containing half-fold dilutions of wildtype scFv (4.0, 2.0, 1.0, 0.5, 0.25 μg/mL in PBS+1% BSA) for 10 minutes to measure association. For mutant scFv association, tips were incubated in an analyte solution containing 200 μL of each mutant and wildtype scFv at a final concentration of 1 μg/mL in PBS+1% BSA. Antibody dissociation steps were performed by dipping sensors in wells containing PBS+1% BSA for 56 minutes. The following negative controls included in these kinetic experiments were also measured: 200 μL of buffer to replace both the antigen and scFv and 200 μL buffer replacing scFv only. Each experiment was performed with PF4 or with PF4/heparin as the immobilized antigen.
(§2) BLI experiments were performed to evaluate binding responses and affinities of wildtype and mutant scFv. Biotinylated PF4 alone or complexed with heparin was immobilized on streptavidin biosensors and used to capture wildtype scFv. Half-fold serial dilutions of wildtype scFv ranging from 0.25 μg/mL to 4 μg/mL were used to determine the optimal concentrations for future experiments PF4 (PF4 FIG. 3; PF4/heparin FIG. 4).

[2] = target: T2, PF4/heparin complex (human PF4 complexed with heparin) (human, UniProt P02776 32-101); experiment: BLI (Octet), biotinylated PF4/heparin on streptavidin sensors, 1:1 model; scFv at 0.25 µg/mL (response near baseline)
T2 construct: Multimeric complex of PF4 with heparin (not a protein); In the EIAs: PF4 captured on biotinylated heparin on streptavidin plates; In the SRA: platelets with 0.2 U/mL heparin; also called PF4 and heparin complexes
T2 sequence: T1 sequence
Method: as §1, with “antigen. […]” for “antigen.”

[3] = target: T2, PF4/heparin complex (human PF4 …); experiment: BLI (Octet), biotinylated PF4/heparin on streptavidin sensors, 1:1 model; scFv at 0.5 µg/mL (response near baseline)
Method: as §1, with “antigen. […]” for “antigen.”

[4] = target: T1, Human PF4 (CXCL4), biotinylated, …; experiment: BLI (Octet), biotinylated PF4 without heparin on streptavidin sensors, 1:1 model; scFv at 1.0 µg/mL
Method: as §1, §2

[5] = target: T1, Human PF4 (CXCL4), biotinylated, …; experiment: BLI (Octet), biotinylated PF4 without heparin on streptavidin sensors, 1:1 model; scFv at 0.25 µg/mL (response near baseline)
Method: All data was analyzed based on a 1:1 homogenous ligand binding model using Octet® User Software version 3.1.
as §1, with “Antibody dissociation steps were performed by dipping sensors in wells containing PBS+1% BSA for 56 minutes.” left out, “Each experiment was performed with PF4 or with PF4/heparin as the immobilized antigen.” left out

[6] = target: T1, Human PF4 (CXCL4), biotinylated, …; experiment: BLI (Octet), biotinylated PF4 without heparin on streptavidin sensors, 1:1 model; scFv at 0.5 µg/mL
Method: as §1, §2

[7] = target: T2, PF4/heparin complex (human PF4 …); experiment: BLI (Octet), biotinylated PF4/heparin on streptavidin sensors, 1:1 model; scFv at 1.0 µg/mL
Method: as §1, §2

[8] = target: T1, Human PF4 (CXCL4), biotinylated, …; experiment: BLI (Octet), biotinylated PF4 without heparin on streptavidin sensors, 1:1 model; scFv at 4.0 µg/mL
Method: as §1, §2

[9] = target: T2, PF4/heparin complex (human PF4 …); experiment: BLI (Octet), biotinylated PF4/heparin on streptavidin sensors, 1:1 model; scFv at 2.0 µg/mL
Method: as §1, §2

[10] = target: T2, PF4/heparin complex (human PF4 …); experiment: BLI (Octet), biotinylated PF4/heparin on streptavidin sensors, 1:1 model; scFv at 4.0 µg/mL
Method: as §1, §2

[11] = target: T2, PF4/heparin complex (human PF4 …); experiment: BLI (Octet), biotinylated PF4/heparin on streptavidin sensors, 1:1 model; scFv at 0.5 µg/mL (response near baseline, software limit value)
Method: as §1, with “antigen. […]” for “antigen.”

[12] = target: T2, PF4/heparin complex (human PF4 …); experiment: BLI (Octet), biotinylated PF4/heparin on streptavidin sensors, 1:1 model; scFv at 0.25 µg/mL (response near baseline, software limit value)
Method: as §1, with “antigen. […]” for “antigen.”

B1: Wildtype scFv (KKO-derived single chain variable fragment) (scFv)
scFv: DIQMIQSQKFMSTSVGDRVTVTCKASQNVGTNVAWYQQKPGQSPNALIYSASYRYSGVPDRFTGSGSGTDFTLTITNVQSEDLADYFCQQYNSYPLTFGTGTKLDLKGGGGSGGGGSGGGGSVQLQQSGAELVKPGASVKLSCKASGYTFTNYFIYWVKQRPGQGLEWIGEINPRNGDTDFNEKFESRATLTVDKSSSTAYMQLSSLTSEDSAIYYCTRSPYGNNYGFTYWGQGTLVTVSA
notes: VL-(G4S)3 linker-VH; expressed in E. coli BL21 from pADL-22c, purified on Ni-NTA as histidine-tagged scFv, about 28 kDa; also called WT; KKO-scFv; not shown: histidine tag from the pADL-22c vector
- Kd [1]: 9.59 nM
- koff [1]: 0.000515 s⁻¹
- kon [1]: 53800 M⁻¹ s⁻¹
- koff [2]: 0.00042 s⁻¹
- koff [3]: 0.00504 s⁻¹
- Kd [4]: 5.71 nM
- koff [4]: 0.000853 s⁻¹
- kon [4]: 149000 M⁻¹ s⁻¹
- koff [5]: 0.021 s⁻¹
- Kd [6]: 34.5 nM
- koff [6]: 0.0037 s⁻¹
- kon [6]: 107000 M⁻¹ s⁻¹
- Kd [7]: 0.961 nM
- koff [7]: 0.000264 s⁻¹
- kon [7]: 274000 M⁻¹ s⁻¹
- Kd [8]: 24.1 nM
- koff [8]: 0.000596 s⁻¹
- kon [8]: 24800 M⁻¹ s⁻¹
- Kd [9]: 9.18 nM
- koff [9]: 0.000571 s⁻¹
- kon [9]: 62100 M⁻¹ s⁻¹
- Kd [10]: 39.3 nM
- koff [10]: 0.000871 s⁻¹
- kon [10]: 22200 M⁻¹ s⁻¹
- Kd [11]: < 0.001 nM
- Kd [12]: < 0.001 nM
